Data from US20210261648A1 (published 2021).
Positions count from the first letter of the chain named. Names may count otherwise.

Tests used:
[1] = molecular target: T1, FcγRIIb extracellular domain with C-terminal His tag (human, UniProt P31994 43-217); assay: SPR (Biacore)
T1 construct: extracellular domain; For crystals it was expressed with kifunensine and trimmed with Endo F1; also called FcgRIIb; FcγRIIb extracellular region
T1 sequence (looked up): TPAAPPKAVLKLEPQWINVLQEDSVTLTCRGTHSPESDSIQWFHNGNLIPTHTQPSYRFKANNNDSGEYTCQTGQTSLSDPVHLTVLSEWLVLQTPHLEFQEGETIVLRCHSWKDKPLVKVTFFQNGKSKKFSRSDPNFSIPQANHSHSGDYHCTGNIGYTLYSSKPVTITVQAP

[2] = molecular target: T2, FcγRIIa type H (human, UniProt P12318 34-217); assay: SPR (Biacore), captured antibody, soluble FcγR
T2 construct: extracellular domain; also called FcγRIIaH; FcgRIIaH
T2 sequence (looked up): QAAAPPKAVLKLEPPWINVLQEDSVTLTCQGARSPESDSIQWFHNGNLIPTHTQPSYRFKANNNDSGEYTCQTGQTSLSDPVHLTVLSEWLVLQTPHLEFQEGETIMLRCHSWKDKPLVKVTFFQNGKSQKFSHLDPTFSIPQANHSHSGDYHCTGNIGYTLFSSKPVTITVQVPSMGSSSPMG

[3] = molecular target: T3, FcγRIIa type R (human, UniProt P12318 34-217); assay: SPR (Biacore), captured antibody, soluble FcγR
T3 chain: T2 sequence (looked up) with H134R

[4] = molecular target: T4, FcγRIIb (human, UniProt P31994 43-217); assay: SPR (Biacore), captured antibody, soluble FcγR
T4 construct: extracellular domain; also called FcgRIIb; CD32B
T4 sequence (looked up): T1 sequence (looked up)

[5] = molecular target: T5, FcγRIa (human, UniProt P12314 16-292); assay: SPR (Biacore), captured antibody, soluble FcγR
T5 construct: Whole entry named; also called FcgRIa; CD64A
T5 sequence (P12314 16-292): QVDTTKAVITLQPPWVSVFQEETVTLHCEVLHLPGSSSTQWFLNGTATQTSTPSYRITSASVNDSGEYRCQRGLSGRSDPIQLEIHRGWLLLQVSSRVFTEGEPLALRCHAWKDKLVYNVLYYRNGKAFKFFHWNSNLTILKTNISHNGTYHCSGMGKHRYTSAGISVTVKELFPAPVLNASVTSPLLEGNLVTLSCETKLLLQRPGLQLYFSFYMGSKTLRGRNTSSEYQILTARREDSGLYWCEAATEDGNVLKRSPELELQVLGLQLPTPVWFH

[6] = molecular target: T3, FcγRIIa type R; assay: SPR (Biacore); parent = IL6R-B3/IL6R-L
[7] = molecular target: T4, FcγRIIb; assay: SPR (Biacore); parent = IL6R-B3/IL6R-L

B1: IL6R-BP454/IL6R-L (antibody, human IgG1, kappa, name in EU numbering)
heavy: QVQLQESGPGLVKPSETLSLTCAVSGHSISHDHAWSWVRQPPGEGLEWIGFISYSGITNYNPSLQGRVTISRDNSKNTLYLQMNSLRAEDTAVYYCARSLARTTAMDYWGEGTLVTVSSASTKGPSVFPLAPSSKSTSGGTAALGCLVKDYFPEPVTVSWNSGALTSGVHTFPAVLQSSGLYSLSSVVTVPSSSLGTQTYICNVNHKPSNTKVDKKVEPKSCDKTHTCPPCPAPDLLGDDSVFLFPPKPKDTLMISRTPEVTCVVVDVAEEDGEVKFNWYVDGVEVHNAKTKPREEQYNSTYRVVSVLTVLHQDWLNGKEYKCKVSNKALPRPIEKTISKAKGQPREPQVYTLPPSRDELTKNQVSLTCLVKGFYPSDIAVEWESNGQPENNYKTTPKVLDSDGSFFLYSKLTVDKSRWQQGNVFSCSVMHEALHNHYTQESLSLSP
light: not shown
[1]
  binding result: binds

B2: IL6R-AP002/IL6R-BP256/IL6R-L (antibody, human IgG1, kappa)
heavy 1: B1 heavy with A269S, E270D, D358K, K398P, H437R, E441K
heavy 2: B1 heavy with S241D, A269S, E270D, K398P
light: not shown
notes: Heterodimer: S239D in one chain only
[1]
  binding result: binds

B3: IL6R-BP558/IL6R-L (antibody, human IgG1, kappa)
heavy: B1 heavy with D235E, V266I, A269G, E274D, K398P
light: not shown
notes: Alterations in EU numbering, introduced into IL6R-B3
[2]
  Kd: 4900 nM
[3]
  Kd: 330 nM
[4]
  Kd: 9 nM

B4: IL6R-BP545/IL6R-L (antibody, human IgG1, kappa)
heavy: B1 heavy with A269S, E270D, Y298D, D358E, K398P
light: not shown
[1]
  binding result: binds

B5: IL6R-BP492/IL6R-L (antibody, human IgG1, kappa)
heavy: B1 heavy with D235E, D239G, V266I, R332A, K398P
light: not shown
[1]
  binding relative to IL6R-B3/IL6R-L: ≥ 100 times

B6: IL6R-BP554/IL6R-L (antibody, human IgG1, kappa)
heavy: B1 heavy with D235E, V266I, E274D, K398P
light: not shown
notes: as for B3
[2]
  Kd: 2300 nM
[3]
  Kd: 150 nM
[5]
  Kd: 8 nM

B7: IL6R-BP466/IL6R-L (antibody, human IgG1, kappa)
heavy: B1 heavy with A269S, E270D, Y298D, E335R, K398P
light: not shown
[1]
  binding result: binds

B8: IL6R-BP459/IL6R-L (antibody, human IgG1, kappa, name in EU numbering)
heavy: B1 heavy with K398R
light: not shown
[1]
  binding result: binds

B9: IL6R-BP456/IL6R-L (antibody, human IgG1, kappa, name in EU numbering)
heavy: B1 heavy with K398M
light: not shown
[1]
  binding result: binds

B10: variant resulting from adding E269D to IL6R-BP267/IL6R-L (antibody, human IgG1, kappa)
heavy: B1 heavy with A269S, E271D, R332A, K398P
light: not shown
[1]
  binding result: binds

B11: variant resulting from adding S267A to IL6R-BP267/IL6R-L (antibody, human IgG1, kappa)
heavy: B1 heavy with R332A, K398P
light: not shown
[1]
  binding result: binds

B12: IL6R-BP493/IL6R-L (antibody, human IgG1, kappa)
heavy: B1 heavy with D235E, D239G, V266I, Y298D, R332A, K398P
light: not shown
[1]
  binding relative to IL6R-B3/IL6R-L: ≥ 100 times

B13: variant resulting from adding S267E to IL6R-BP267/IL6R-L (antibody, human IgG1, kappa)
heavy: B1 heavy with A269E, R332A, K398P
light: not shown
[1]
  binding result: binds

B14: IL6R-BP500/IL6R-L (antibody, human IgG1, kappa)
heavy: B1 heavy with D235E, V266I, Y298D, R332A, K398P
light: not shown
[1]
  binding relative to IL6R-B3/IL6R-L: ≥ 100 times

B15: IL6R-AP002/IL6R-BP257/IL6R-L (antibody, human IgG1, kappa)
heavy 1: B1 heavy with A269S, E270D, D358K, K398P, H437R, E441K
heavy 2: B1 heavy with S241E, A269S, E270D, K398P
light: not shown
notes: Heterodimer: S239E in one chain only
[1]
  binding result: binds

B16: IL6R-BP487/IL6R-L (antibody, human IgG1, kappa)
heavy: B1 heavy with V266I, K398M
light: not shown
notes: as for B3
[6]
  KD(IIaR) of the parent polypeptide/KD(IIaR) of the altered polypeptide: 28.3 fold
[7]
  KD(IIb) of the parent polypeptide/KD(IIb) of the altered polypeptide: 2700 fold
[2]
  Kd: 840 nM
[3]
  Kd: 39 nM
[5]
  Kd: 1.2 nM
[4]
  Kd: 1.2 nM

B17: variant resulting from adding V264I to IL6R-BP267/IL6R-L (antibody, human IgG1, kappa)
heavy: B1 heavy with V266I, A269S, R332A, K398P
light: not shown
[1]
  binding result: binds

B18: IL6R-BP559/IL6R-L (antibody, human IgG1, kappa)
heavy: B1 heavy with D235E, D239G, V266I, E274D, Y298D, R332A, K398P
light: not shown
[1]
  binding relative to IL6R-B3/IL6R-L: ≥ 100 times

B19: IL6R-AP009/IL6R-BP259/IL6R-L (antibody, human IgG1, kappa)
heavy 1: B1 heavy with A269S, E270D, Y298D, D358K, K398P, H437R, E441K
heavy 2: B1 heavy with S241D, A269S, E270D, Y298D, K398P
light: not shown
notes: as for B2
[1]
  binding result: binds
